In publication PMC3942486, “The Ansamycin Antibiotic, Rifamycin SV, Inhibits BCL6 Transcriptional Repression and Forms a Complex with the BCL6-BTB/POZ Domain” (PLoS ONE, 2014):

Target: BCL6-POZ domain (residues 7 to 128 of human BCL6, C8Q, C67R, C84N) (UniProt P41182)
Experiment: fluorescence polarisation

Kd [µM]	Substance
43	wild-type SMRT peptide, labelled with BODIPY TMR H1426(homophenylalanine)
41	wild-type SMRT peptide, labelled with BODIPY TMR H1426(styrylalanine)
